Drawing on the supplement of paper PMC12042874, this text covers amyloid nucleation score for 140 substances.

± gives the uncertainty stated by the source.

The series in a line: amyloid nucleation score (Sup35N fusion, yeast selection) (log enrichment); library NNK2; higher = more nucleation; inactive = no reads after selection. In short, it runs like this:
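The nucleation score is the DiMSum log enrichment of output over input reads, centred on the mode score of non-aggregating sequences. Only sequences with 100 or more input reads were scored, using Illumina sequencing of input and output plasmid inserts. Psi-negative yeast expressing Sup35N fused to peptides of 20 random codons were induced 24 hours with 100 μM copper sulfate and grown 7 days at 30°C on medium lacking adenine and uracil.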
Substance MNKCIWGIYYR registered an amyloid nucleation score of -1.6 ± 1.1.
TGKYICRW showed an amyloid nucleation score of -0.843 ± 0.38.
In the case of CKYVYFRPTRASSSWHVIFL, the amyloid nucleation score amounted to 2.93 ± 0.076.
In turn, ICEVRIFKLNMVVCSLYYMV had an amyloid nucleation score of -1.12 ± 0.76.
Turning to ELDWKASTIGKMNHIRLERR, the amyloid nucleation score is 0.145 ± 0.23.
Substance VYCLSVMSARSQFCVWGWML registered an amyloid nucleation score of 0.165 ± 1.
The substance QCQRLSWRCMWCGMSLYQYD gave an amyloid nucleation score of 3.98 ± 0.048.
For LWVIISCSDYLNWLNRGMNE, the amyloid nucleation score was 5.45 ± 0.056.
For DPVSYILDWASRGNS the value was 0.523 ± 0.64.
Substance CMVMGNERM yielded an amyloid nucleation score of -0.011 ± 0.22.
The result for ALPITQNCC reads -1.07 ± 0.44; that for FFHKDPLLQNRIVLHMQVPA, “inactive”.
As for RFVFQIVSIYISWMVIDKTR, the amyloid nucleation score was -0.436 ± 0.78.
Consider YVTELIDCPGWTRRM, for which the amyloid nucleation score is -0.006 ± 0.38.
WGHANFAEVWNDP displayed an amyloid nucleation score of 0.385 ± 0.6.
Substance YSIVNTNAGMTTRAWVTPTW had an amyloid nucleation score of 1.38 ± 0.21.
For RVRLTRSSSCPNSVSFCGVA the value was 1.29 ± 0.24.
Take WRGGFWPCSVVLI: the amyloid nucleation score was 0.354 ± 0.65.
Turning to GGQEIAYILTSVSSLSNPMW, the amyloid nucleation score was 3.24 ± 0.1.
In the case of MEYPRLRSHNTAIFTLFQRP, the amyloid nucleation score was found to be 5.38 ± 0.055.
Turning to FSCMLNSNFH, the amyloid nucleation score result was “inactive”.
Substance RVLSIRSFP gave an amyloid nucleation score of 1.64 ± 0.13.
CVKKEIMLFAFDALKSLLGR returned an amyloid nucleation score of -0.742 ± 1.1.
As for GSYSNAIFIHKLKNKHCFQS, the amyloid nucleation score entry was “inactive”.
For the substance YVMNRCNR, the amyloid nucleation score was -0.019 ± 0.54.
As to LYQRNRLWGRKAWNTLWFSL, the amyloid nucleation score was -0.506 ± 0.42.
TGWNDATRY had an amyloid nucleation score of -0.467 ± 0.49.
On to WHNDSTG, for which the amyloid nucleation score was 0.619 ± 0.22.
RNCHYYILVTLCNVKNVYL: the amyloid nucleation score came to 8.283 ± 0.054.
The result for TYKMKNMGICIYRYARLGDC reads 0.372 ± 0.74; that for TISMEVEYCV, -0.1 ± 1; that for LVQLKRCQMSLWMRHYHRDE, 5.951 ± 0.055.
The result for RNCACCEWL reads 4.58 ± 0.052; that for PEHYSGATRLVH, 0.42 ± 0.47.
Take LLVKTNYVCGALTNGRMNGT: the amyloid nucleation score turned out to be 2.12 ± 0.081.
Substance LKTIMCFCQIYLFNSDPVHF gave an amyloid nucleation score of 3.37 ± 0.11.
The substance GASLLFALSLSYKFHQYLVD yielded an amyloid nucleation score of -1.44 ± 0.49.
FYINTYQVSQGFIA: the amyloid nucleation score entry is “inactive”.
Substance YFSRWLFFYECKGDNLLRRE displayed an amyloid nucleation score of -0.512 ± 0.76.
Take TNVGCRVLCTLRSVTPDVVR: the amyloid nucleation score came out at 0.646 ± 0.62.
Substance LYDYYQICINGGRVFSDFPC displayed an amyloid nucleation score of -0.474 ± 0.79.
In the case of GKLAARTAINSLFCKLGRRP, the amyloid nucleation score was -0.066 ± 0.63.
VLTNKLQVTVCLLC showed an amyloid nucleation score of 8.448 ± 0.046.
As for DTIGAATLTITVWNSFMVGP, the amyloid nucleation score was 4.15 ± 0.076.
For RTHWELRKNLLCPFVDKIY the value was -1.2 ± 0.78; for GPSMCFGEFKVYAEVSWSQA, 0.095 ± 0.34.
Turning to HRFSMQALYRNIQEWSCEAW, the amyloid nucleation score stood at 2.07 ± 0.12.
As to YTKFANSHFIGLNRSCWSNE, the amyloid nucleation score was -0.238 ± 0.8.
For the substance EWVNVASVYGDSKKRYGWNA, the amyloid nucleation score was -0.239 ± 0.61.
As to NRFVYLVI, the amyloid nucleation score is -0.321 ± 0.36.
For TCYRSDRPIRRRVAFALTEG the value was 1.04 ± 0.41; for LGYCGM, “inactive”; for EGVKF, 0.436 ± 0.8.
Take SECKSRRYIWWHIWYDLS: the amyloid nucleation score amounted to 0.49 ± 0.12.
On to VWIGAAGGDFDSCRG, for which the amyloid nucleation score was determined as 1.29 ± 0.43.
On to NVIGENLGGLLNIFDTNVSF, for which the amyloid nucleation score result was “inactive”.
The result for SMCDNQKLATDFVSAPRKYG reads -0.73 ± 0.79; that for CNGYTKRRYTRYSYKWFAVA, -0.15 ± 0.45; that for IVLSSYLIWLD, “inactive”.
For the substance DNLLSPTSRKFRVDTILL, the amyloid nucleation score was -0.256 ± 0.4.
As for CTNMREFKGSLKAHIVLVVV, the amyloid nucleation score is -0.479 ± 0.32.
Consider YNLCSSCNIQWWCSRMHQQK, for which the amyloid nucleation score amounted to 8.858 ± 0.055.
With KGPTSLLYLVMCFMVLQQLR, the amyloid nucleation score is -0.447 ± 0.78.
The result for YIVCKDSTSQVYYFSSDNFY reads 4.09 ± 0.095.
In the case of VSLMFSGVIWAIWLMLFGVG, the amyloid nucleation score was 1.13 ± 0.61.
With LTEVIVFYIRYMQARDRLIR, the amyloid nucleation score entry was “inactive”.
With GRVWVW, the amyloid nucleation score was determined as 0.718 ± 0.57.
For ISPLHNSLKALRFGPPYSTL the value was -0.377 ± 0.4.
Turning to HEESDGPNERTILVCSICVI, the amyloid nucleation score came out at 0.487 ± 0.28.
The result for PESYVGRSLSPTVLVMWKSD reads 0.102 ± 1.1.
As to MLNYAYSL, the amyloid nucleation score stood at 1.42 ± 0.32.
The result for LHCLRDIIKRNKDSFPQMWG reads -0.607 ± 0.33.
As to IVMGLGLGASVSRGWNN, the amyloid nucleation score turned out to be 3.58 ± 0.069.
Substance RLSSILYYVNHFS showed an amyloid nucleation score of -0.045 ± 0.41.
Substance YVMREDLGPGSQADPTSGRS displayed an amyloid nucleation score of 0.912 ± 0.27.
RWFDRV: the amyloid nucleation score stood at 0.664 ± 0.31.
Consider SCMYIFLFLNSNIQLIVWDV, for which the amyloid nucleation score is -0.137 ± 1.1.
Take HEYQFSYDFKFLFGSQIMYM: the amyloid nucleation score result was “inactive”.
The result for VMALSIMTMGTSVGFRDNGG reads 4.38 ± 0.071.
VSIRDVVGQYSINRVICRSY gave an amyloid nucleation score of -0.774 ± 0.54.
SNALQDGRVQLGSFEHRIVR showed an amyloid nucleation score of 0.649 ± 0.5.
For the substance LLLYEMFSKVGLLFPSYFKY, the amyloid nucleation score result is “inactive”.
Regarding IGVWMGCYTSLHCSIKCLEI, the amyloid nucleation score came out at 6.36 ± 0.086.
In the case of VNLVYSYFNISGWIEFSSLC, the amyloid nucleation score is 2.98 ± 0.053.
The result for WAEPYFRCDGSSRIFSQGNA reads “inactive”.
For DMFRWNSYCSIVMLYCYAYD the value was 4.62 ± 0.063; for YSFSRTYVLIIDGVS, 1.27 ± 0.18.
On to KFFLFDHNNNF, for which the amyloid nucleation score was found to be 0.699 ± 0.33.
As for LLGPYKAHTQKYCWSSYV, the amyloid nucleation score was -0.287 ± 0.56.
The result for TAMEVPHRIWLR reads -0.305 ± 1.1; that for MYRIDD, 6.83 ± 0.088.
Turning to IFHYAFC, the amyloid nucleation score turned out to be 10.09 ± 0.061.
As to LRLTYSWSYSCLLITNQRQN, the amyloid nucleation score is -0.009 ± 0.65.
Take AALCGLKFVRERKWRKSILS: the amyloid nucleation score was 0.345 ± 0.65.
For SILLPPFSRAFDSPRIYITP the value was -0.82 ± 0.55; for GNFWAFISRRQSRGFLDSAL, -0.412 ± 1.1.
For SFVIIVLDDLCSCAN, the amyloid nucleation score came to 1.62 ± 0.13.
In turn, GSRAFALSTCCFMKYGSGMG yielded an amyloid nucleation score of 8.075 ± 0.078.
With EEQKSYSENMPV, the amyloid nucleation score was -0.21 ± 0.56.
Take RVVVTEKKLPCLGQGTIVPT: the amyloid nucleation score amounted to 0.03 ± 0.35.
For the substance KYDVEGMQVSRNFY, the amyloid nucleation score is -0.424 ± 0.79.
Regarding GNSGYPTV, the amyloid nucleation score came out at 1.02 ± 0.24.
Substance MICDLMAVVNVQSKWRYSDK registered an amyloid nucleation score of 5.052 ± 0.038.
Turning to RYGLLYSTSLACWFGS, the amyloid nucleation score is 4.36 ± 0.058.
For the substance VNSFIDDSCLGMANPLPYWS, the amyloid nucleation score was -1.03 ± 1.
FLSDNVISAY had an amyloid nucleation score of -0.543 ± 0.38.
The result for SKIGHD reads 0.545 ± 0.57.
Turning to LALWCTWEVRLIDESAMTTF, the amyloid nucleation score stood at 0.467 ± 0.29.
For the substance HYRWMSHADIMVFHNLCRYN, the amyloid nucleation score result is “inactive”.
For SISSVLCYWYKNHKNDIVSG the value was “inactive”; for SYLSCGQKKHWCWPKVDSFR, -0.444 ± 0.42; for VDNCDLGIS, -0.861 ± 1.1.
The result for GEDTFYSISCYVQMLL reads 1.49 ± 0.08; that for YNPVPFL, -0.788 ± 0.39; that for SWNIFPQSNLKSKWDTIRCL, -2.46 ± 0.62.
Regarding PFNQDMLTIQIGTSIISRSS, the amyloid nucleation score is -0.172 ± 1.1.
LSLMHAQHSTMLDNSMTM gave an amyloid nucleation score of 0.621 ± 0.56.
Substance FFQEGYNRVPS registered an amyloid nucleation score of -0.336 ± 0.62.
Regarding GEGGANVMCRVAGIIR, the amyloid nucleation score worked out at 1.17 ± 0.17.
The result for CPFSYEPNFPLIGRGNFAIW reads -0.987 ± 1; that for LYRVLNTVHVSHLQTIRP, -0.064 ± 1.1; that for VLNERYSTLVVAPTRNASGL, “inactive”.
The result for FSMDHDDRSSCKAWHRSEFE reads 1 ± 0.2; that for FTSASQFNNTGFCLI, -0.23 ± 0.79.
VCWLLGSGFWAS: the amyloid nucleation score entry is “inactive”.
Consider LFNLACLRGRKTVWITDKLT, for which the amyloid nucleation score amounted to 0.012 ± 0.5.
Take LTVFTPR: the amyloid nucleation score is -0.62 ± 0.37.
The result for MMDFYRLDLDRTVVVRNRYL reads 0.389 ± 0.74; that for LMGLFREFFRYILFGCINQF, -0.419 ± 0.27; that for MKMEY, 0.31 ± 0.42.
YTWVYPF registered an amyloid nucleation score of -1.01 ± 0.33.
Regarding DYNSNMSFSRLCTRVTCHSM, the amyloid nucleation score entry is “inactive”.
DIYLLKIDRSGKCWPTTVDL displayed an amyloid nucleation score of -0.067 ± 0.41.
On to WVCNFVMIRLGIFEF, for which the amyloid nucleation score turned out to be 1.78 ± 0.14.
For GWSSSHVWVGLNS the value was 2.44 ± 0.21; for VLAAT, -0.815 ± 0.55.
VNLGSGAVEPTTLRKFGLTR yielded an amyloid nucleation score of 4.28 ± 0.06.
Consider PLMRGECGALLRLMFNTVS, for which the amyloid nucleation score entry was “inactive”.
The substance NKYKLNLYMRVIGDQNNPVN displayed an amyloid nucleation score of -0.249 ± 1.
In the case of LYLTWCKTLSDNLAL, the amyloid nucleation score is -1.15 ± 0.76.
